Measurements as given in US20190106487A1 (Sanofi, published 2019).
Positions count from the first letter of the chain named.

T1: mIL1RAcP-Fc (murine, UniProt Q61730 21-359)
T1 construct: also called P013_04; P013-04
T1 sequence (looked up): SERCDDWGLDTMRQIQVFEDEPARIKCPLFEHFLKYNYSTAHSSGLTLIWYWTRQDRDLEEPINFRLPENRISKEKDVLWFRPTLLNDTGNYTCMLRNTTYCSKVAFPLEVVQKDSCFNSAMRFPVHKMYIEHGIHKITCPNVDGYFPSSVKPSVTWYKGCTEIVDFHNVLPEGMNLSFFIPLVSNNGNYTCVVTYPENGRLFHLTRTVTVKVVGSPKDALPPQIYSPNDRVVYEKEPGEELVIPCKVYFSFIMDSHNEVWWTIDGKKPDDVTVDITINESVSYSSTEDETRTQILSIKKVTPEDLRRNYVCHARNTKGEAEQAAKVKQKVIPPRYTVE

T2: human IL-1RAcP on 293T/17-FR cells (human, UniProt Q9NPH3 21-570)
T2 sequence (looked up): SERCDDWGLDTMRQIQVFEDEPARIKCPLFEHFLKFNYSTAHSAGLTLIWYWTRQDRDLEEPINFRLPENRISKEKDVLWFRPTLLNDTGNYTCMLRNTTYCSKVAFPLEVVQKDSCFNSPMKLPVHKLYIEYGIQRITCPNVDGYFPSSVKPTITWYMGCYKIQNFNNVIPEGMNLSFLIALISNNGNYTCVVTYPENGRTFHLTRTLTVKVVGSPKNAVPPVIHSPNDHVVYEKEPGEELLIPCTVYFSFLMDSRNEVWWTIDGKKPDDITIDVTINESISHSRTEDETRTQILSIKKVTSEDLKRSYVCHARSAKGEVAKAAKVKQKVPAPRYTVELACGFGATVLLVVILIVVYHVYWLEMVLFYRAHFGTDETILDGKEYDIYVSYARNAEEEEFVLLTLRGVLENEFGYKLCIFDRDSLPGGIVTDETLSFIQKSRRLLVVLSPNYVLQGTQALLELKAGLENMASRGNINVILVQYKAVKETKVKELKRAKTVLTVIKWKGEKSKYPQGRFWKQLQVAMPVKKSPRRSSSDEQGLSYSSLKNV

T3: rhIL-1RAcP/Fc Chimera (human, UniProt Q9NPH3 21-359)
T3 construct: also called P013_03; P013-03
T3 sequence (looked up): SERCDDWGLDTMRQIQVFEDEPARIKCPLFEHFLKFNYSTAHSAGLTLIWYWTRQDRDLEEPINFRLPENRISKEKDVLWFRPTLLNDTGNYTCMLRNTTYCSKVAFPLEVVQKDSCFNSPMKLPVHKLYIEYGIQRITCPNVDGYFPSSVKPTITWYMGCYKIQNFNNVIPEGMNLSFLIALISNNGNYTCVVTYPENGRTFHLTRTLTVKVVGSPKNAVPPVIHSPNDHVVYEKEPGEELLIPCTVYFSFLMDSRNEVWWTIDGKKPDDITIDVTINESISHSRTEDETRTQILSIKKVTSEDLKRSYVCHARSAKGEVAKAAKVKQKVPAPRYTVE

B1: P013.S.01.B.F05 (antibody, V domains shown)
VH: QSLEESGGRLVTPGGSLTLTCTVSGIDLSNYAMSWVRQAPGKGLEWIGSVISGGSTYYATWAKGRFTISKTSTTVDLKMTSLTTEDTATYFCARGCPGYNGDKYALDLWGPGTVVTVSS
VL: AFEMTQTPSSVSEPVGGTVTIKCQASQSIHNYLSWYQQKPGQRPKLLIYRASTLASGVPSRFKGSGSGTEFTLTISGVESADAATYYCQQGATSYDIDNAFGGGTEVVVK
notes: rabbit monoclonal antibody; also called P013.A.00087.C06
B2: P013.S.01.B.G03 (antibody, V domains shown)
VH: QEQLVESGGGLVQPEGSLTLTCKASGFDFSSNYYMCWVRQAPGKGLELIACIYTNSGNTWSASWAKGRFTISKTSSTTVTLQMTSLTAADTATYFCARDLNYPDTSNLWGQGTLVTVSS
VL: DIVMTQTPASVEAAVGGTVTIKCQASQSIGYYLAWYQQKPGQPPKLLISRASTLASGVPSRFKGSGSGTQFTLTISDLESADVATYYCQSYYNSDSDAFGGGTEVVVK
notes: rabbit monoclonal antibody; also called P013.A.00030.C03
B3: P013.S.01.B.G04 (antibody, V domains shown)
VH: QSVEESGGRLVTPGTPLTLTCTVSGFSLSVYAMGWFRQAPGKGLEWIGDIYIASDGTWYANWAKGRFTISKTSTTVDLKITSPTTEDTATYFCAREIDAGYVGYGFNLWGQGTLVTVSS
VL: AQALTQTPSPVSAAVGGTVTINCQSSQSVYSDYLGWYQQKPGQPPKLLIYWASKLETGVPSRFKGSGSGTQFTLTISGVQSDDAATYYCQATYYGSGWYRAFGGGTEVVVK
notes: rabbit monoclonal antibody; also called P013.A.00013.G06
B4: P013.S.01.B.H05 (antibody, V domains shown)
VH: LEQSGGGAEGGLVKPGGSLELCCKASGFSLSNSYWICWVRQAPGKGLEWIGCIYVGSSGSTYYASWVNGRFTLSRDIDQSTGCLQLNSLTAADTAIYYCARDGATSTSGHLFELWGQGTLVTVSS
VL: ALVMTQTPSPVSAAVGGTVTINCQASEDIYSNLAWFQQKPGQPPKLLIYRASTLASGVPSRFSGSGSGTEFTLTISGVQSDDAATYYCLGIYTYISADGSLYNAFGGGTEVVVK
notes: rabbit monoclonal antibody; also called P013.A.00109.F08
B5: P013.S.01.B.A06 (antibody, V domains shown)
VH: QSLEESGGRLVTPGTPLTLSCKVSGFSLSSYDMSWVRQTPGKGLEWIGTIYIGGTTAYASWPKGRFTISKTSTTVDLKITSPTKEDTATYFCARLQGANYYNSLALWGQGTLVTVSS
VL: DVVMTQTPASVSEPVGGTVTIKCQASQSIYSFLSWYQQKPGQPPKLLIYAASDLESGVPSRFSGSGYGTEFTLTISDLESADAATYYCQCNYIIDYGAFGGGTEVVVK
notes: rabbit monoclonal antibody; also called P013.A.00133.B12
B6: P013.S.01.B.H06 (antibody, V domains shown)
VH: LEQSGGGGEGGLVKPGGSLELCCKASGFSLSSSYWICWVRQAPGKGLEWIGCIYVGSSGSTYYASWVSGRFTLSRDIDQSTGCLQLNSLTAADTAMYYCARDIYGSTNGYDLWGQGTLVTVSS
VL: B4 VL with R50Q, T53K, V78L, A83V, I91V, Y92G, A97G, Y102D
notes: rabbit monoclonal antibody; also called P013.A.00086.B03
B7: P013.S.02.B.A05 (antibody, V domains shown)
VH: QEQLVESGGGLVQPEGSLTLTCQASGFTFSSYYVICWVRQAPGKGLEWIACIGTGDGLTYYASWAKGRFTISKTSSTTVTLQMTSLTAADTATYFCARDRYATVSGILNLWGPGTLVTVSS
VL: DVVMTQTPASVEAAVGGTVTIKCQASQNIYSNCAWYQQKLGQRPKLLIYYVSTLESGVPSRFEGSGYGTEFTLTISDLQSADAATYYCQYTYDSSSSTSWAFGGGTEVVVK
notes: rabbit monoclonal antibody; also called P013.A.00031.D11
B8: P013.S.02.B.B02 (antibody, V domains shown)
VH: LAQSGGGAEGGLVKPGGSLELCCEASGFSLSSSYWICWVRQAPGKGLEWIGCIYTGSSGNTYYASWVNGRFTLSRDIDRSTGCLQLNSLTAADTAMYYCARDANSHYMMNLWGQGTLVTVSS
VL: ALVMTQTPSPVSAAVGGTVTINCQASEDIYSNLAWFQQKPGQPPKLLIYDASTLASGVPSRFSGSGSGTEFTLTISGLQSDDAATYYCLGVYTYISADGTLVYNAFGGGTEVVVR
notes: rabbit monoclonal antibody; also called P013.A.00045.H10
B9: P013.S.02.B.B03 (antibody, V domains shown)
VH: QEQLEESGGDLVKPEGSLTLTCTASGFSFSSNYWICWVRQAPGKGLELIACIYTSTGNTWYASWAKGRFTISKTSSTTVTLQMTSLTVADTATYFCARDLLVVTSFNLWGQGTLVTVSS
VL: ALVMTQTPSPVSAAVGGTVTINCQASEDIYSNLAWFQQKPGQPPKLLIYGASTLASGVPSRFSGSGSGTEFTLTISGVQSDDAATYYCLGVCTDISTDDLYNAFGGGTELVVK
notes: rabbit monoclonal antibody; also called P013.A.00045.F11
B10: P013.S.02.B.F04 (antibody, V domains shown)
VH: B9 VH with E5V, L48W, G57D, N58T, W60Y, A62P, S63N, V88A
VL: B9 VL with T97A, A103T, L110V
notes: rabbit monoclonal antibody; also called P013.A.00109.B02

These binders were tested against T1, mIL1RAcP-Fc (assay: ELISA, primary supernatant, coated mu-IL-1RAcP-Fc).

Binder | mu-IL1RaP ELISA (OD)
B1 | 1.2 OD
B2 | 0 OD
B3 | 0 OD
B4 | 0.4 OD
B5 | 0 OD
B6 | 0 OD
B7 | 0 OD
B8 | -0.1 OD
B9 | -0.1 OD
B10 | 0 OD

The binders below were run against T2, human IL-1RAcP on 293T/17-FR cells (assay: cell-based or functional assay).

Binder | functional reporter gene assay (% inhibition), 0.04 µg/mL mAb | functional reporter gene assay (% inhibition), 0.2 µg/mL mAb | functional reporter gene assay (% inhibition), 1 µg/mL mAb | functional reporter gene assay (% inhibition), 5 µg/mL mAb | primary supernatant functional assay (% inh.), NF-kB luciferase reporter
B1 | 44% | 54% | 70% | 80% | 89%
B2 | 38% | 51% | 82% | 92% | 89%
B3 | 15% | 51% | 84% | 95% | 99%
B4 | 20% | 47% | 88% | 90% | 95%
B5 | 14% | 85% | 99% | 100% | 96%
B6 | 18% | 47% | 88% | 96% | 91%
B7 | -16% | 42% | 47% | 48% | 80%
B8 | 26% | 37% | 33% | 87% | 95%
B9 | 17% | 31% | 78% | 89% | 94%
B10 | 21% | 6% | 81% | 96% | 93%

What follows are binders tested against T3, rhIL-1RAcP/Fc Chimera (assay: ELISA, recombinant purified mAb).

Binder | EC50
B1 | 0.052 µg/mL
B2 | 0.144 µg/mL
B3 | 0.255 µg/mL
B4 | 0.485 µg/mL
B5 | 0.027 µg/mL
B6 | 0.064 µg/mL
B7 | 0.362 µg/mL
B8 | 0.359 µg/mL
B9 | 0.287 µg/mL
B10 | 0.497 µg/mL

What follows are binders tested against T3, rhIL-1RAcP/Fc Chimera (assay: ELISA, primary supernatant, coated hu-IL-1RAcP-Fc).
Outline: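 Plates coated with 0.5 μg/mL Fc-tagged human IL-1RAcP; rabbit B-cell supernatant antibodies detected by peroxidase anti-rabbit IgG Fab2 and TMB, absorbance 450/620 nm. Parallel IL12Rβ1-Fc coating served as counterscreen to exclude tag binders.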

Binder | hu-IL1RaP ELISA (OD)
B1 | 3.6 OD
B2 | 3.2 OD
B3 | 3.4 OD
B4 | 3.3 OD
B5 | 3.5 OD
B6 | 3.6 OD
B7 | 3.6 OD
B8 | 3.4 OD
B9 | 3.8 OD
B10 | 3.5 OD
